In article PMC7954794, “Protein context shapes the specificity of SH3 domain-mediated interactions in vivo” (Nature Communications, 2021):

System: PPIs identified as affected by the SH3 domain deletions
Experiment: Liquid DHFR-PCA low-throughput validation of PPIs affected by SH3 deletion (Fig. S1D-E)
Assay type: cell-based, Saccharomyces cerevisiae
Settings: label = prey, liquid DHFR-PCA, prey _1 = lost, _2 = gained in screen
How it was run: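 Yeast diploids from DHFR-PCA mating grown 48 h in synthetic complete MSG medium pH 6.0 with NAT and HPH, normalized to 1 OD and diluted to 0.1 OD in liquid PCA selection medium. Growth followed by OD every 15 min for 72 h at 30 °C.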

B1: YDL160C_1 (protein, UniProt P39517 1-506, looked up)
ATP-dependent RNA helicase …: MGSINNNFNTNNNSNTDLDRDWKTALNIPKKDTRPQTDDVLNTKGNTFEDFYLKRELLMGIFEAGFEKPSPIQEEAIPVAITGRDILARAKNGTGKTAAFVIPTLEKVKPKLNKIQALIMVPTRELALQTSQVVRTLGKHCGISCMVTTGGTNLRDDILRLNETVHILVGTPGRVLDLASRKVADLSDCSLFIMDEADKMLSRDFKTIIEQILSFLPPTHQSLLFSATFPLTVKEFMVKHLHKPYEINLMEELTLKGITQYYAFVEERQKLHCLNTLFSKLQINQAIIFCNSTNRVELLAKKITDLGYSCYYSHARMKQQERNKVFHEFRQGKVRTLVCSDLLTRGIDIQAVNVVINFDFPKTAETYLHRIGRSGRFGHLGLAINLINWNDRFNLYKIEQELGTEIAAIPATIDKSLYVAENDETVPVPFPIEQQSYHQQAIPQQQLPSQQQFAIPPQQHHPQFMVPPSHQQQQAYPPPQMPSQQGYPPQQEHFMAMPPGQSQPQY
Ratio (Deletedscore / WTscore) (bait RVS167): 0.8286

B2: YGL153W_2 (protein, UniProt P53112 2-341, looked up)
Peroxisomal membrane protein …: SDVVSKDRKALFDSAVSFLKDESIKDAPLLKKIEFLKSKGLTEKEIEIAMKEPKKDGIVGDEVSKKIGSTENRASQDMYLYEAMPPTLPHRDWKDYFVMATATAGLLYGAYEVTRRYVIPNILPEAKSKLEGDKKEIDDQFSKIDTVLNAIEAEQAEFRKKESETLKELSDTIAELKQALVQTTRSREKIEDEFRIVKLEVVNMQNTIDKFVSDNDGMQELNNIQKEMESLKSLMNNRMESGNAQDNRLFSISPNGIPGIDTIPSASEILAKMGMQEESDKEKENGSDANKDDNAVPAWKKAREQTIDSNASIPEWQKNTAANEISVPDWQNGQVEDSIP
Ratio (Deletedscore / WTscore) (bait BEM1-1): 1.295

B3: YDR379W_2 (protein, UniProt Q06407 1-1009, looked up)
Rho-type GTPase-activating …: MSADPINDQSSLCVRCNKSIASSQVYELESKKWHDQCFTCYKCDKKLNADSDFLVLDIGTLICYDCSDKCTNCGDKIDDTAIILPSSNEAYCSNCFRCCRCSNRIKNLKYAKTKRGLCCMDCHEKLLRKKQLLLENQTKNSSKEDFPIKLPERSVKRPLSPTRINGKSDVSTNNTAISKNLVSSNEDQQLTPQVLVSQERDESSLNDNNDNDNSKDREETSSHARTVSIDDILNSTLEHDSNSIEEQSLVDNEDYINKMGEDVTYRLLKPQRANRDSIVVKDPRIPNSNSNANRFFSIYDKEETDKDDTDNKENEIIVNTPRNSTDKITSPLNSPMAVQMNEEVEPPHGLALTLSEATKENNKSSQGIQTSTSKSMNHVSPITRTDTVEMKTSTSSSTLRLSDNGSFSRPQTADNLLPHKKVAPSPNKKLSRSFSLKSKNFVHNLKSKTSEMLDPKHPHHSTSIQESDTHSGWGVSSTHTNIRKSKAKKNPVSRGQSDSTIYNTLPQHGNFTVPEFNHKKAQSSLGSISKKQNSNDTATNRRINGSFTSSSSGHHIAMFRTPPLESGPLFKRPSLSSESAHHRSSSLQTSRSTNALLEDDSTKVDATDESATSLEKDFYFTELTLRKLKLDVRELEGTKKKLLQDVENLRLAKERLLNDVDNLTREKDKQSASSRESLEQKENIATSITVKSPSSNSDRKGSISNASPKPRFWKIFSSAKDHQVGDLESQQRSPNSSSGGTTNIAQKEISSPKLIRVHDELPSPGKVPLSPSPKRLDYTPDGSHLYGSSLQARCAYEKSTVPIIIRCCIDRIEKDDIGLNMEGLYRKSGSQTLVEEIENEFAQNNSLHSDTLSPKLNALLNQDIHAVASVLKRYLRKLPDPVLSFSIYDALIDLVRNNQLIERLPLNNDKFLDSPQKVTIYEMVLKSLLEIFKILPVEHQEVLKVLAAHIGKVRRCSERNLMNLHNLSLVFAPSLIHDFDGEKDIVDMKERNYIVEFILGNYRDIFKQA
Ratio (Deletedscore / WTscore) (bait BOI1): 0.9152

B4: YDR329C_2 (protein, UniProt P28795 1-441, looked up)
Peroxisomal biogenesis factor …: MAPNQRSRSLLQRHRGKVLISLTGIAALFTTGSVVVFFVKRWLYKQQLRITEQHFIKEQIKRRFEQTQEDSLYTIYELLPVWRMVLNENDLNLDSIVTQLKDQKNQLTRAKSSESRESSPLKSKAELWNELELKSLIKLVTVTYTVSSLILLTRLQLNILTRNEYLDSAIKLTMQQENCNKLQNRFYNWVTSWWSDPEDKADDAMVMAAKKSKKEGQEVYINEQAFLSLSWWILNKGWLSYNEIITNQIEIEFDGIHPRDTLTLEEFSSRLTNIFRNTNSQIFQQNNNNLTSILLPKDSSGQEFLLSQTLDADALTSFHSNTLVFNQLVNELTQCIESTATSIVLESLINESFHFIMNKVGIKTIAKKKPGQEDQQQYQMAVFAMSMKDCCQEMLQTTAGSSHSGSVNEYLATLDSVQPLDDLSASVYSNFGVSSSFSFKP
Ratio (Deletedscore / WTscore) (bait BEM1-1): 1.085

B5: YGL060W_1 (protein, UniProt P53169 1-641, looked up)
YAP1-binding protein 2: MYNEQVNSGKSIKEKERYLDALLKILKDNPVTLKEIGWDLPKGLLQFFSRKNINVNIHLVFSPLVSSVMECFNELAINGNPKECLLTACELVSTLHIVLTETGDSDEENEDLNDSNRNDASNITDELSVITPEIGHYMAKNTVEFIPNLKIYVLFEFMSLLLKRVDTLYPSKFLAMVTSAIIKYVTTNVQAMDDPHFILRIVYNFCTNYSPAQPSASLTDGISTNDLEKIHDDESALQKKLLANLSVFVISNCLKNHPGNIDKIYFKTLMHKKTDENEIDASVLQICHQYYEYVTSLDVHMKELLEKCLVESRSIYNSLLMNPAASTPEFKEEINQLVYEVSYAYQIKKLADEKNLELDQYGVVILSAIHYSKNGTHLLPQIDIQSAIYLYLRCTTASLFSEIYENKFLESSVRYWLWVSTTETSTEKIKCALQELPGHITTAFLQMLLMKTCNESNNDTKLTEITLLRRLLYLMPESTSFTFIFETLLHCPYITAKIAVLDILRDMMIRSPEAANRDETVGLIEQQNPGNTANSVPIMPTLPPRPYITINEDRMASIHSIALICFSAAKQKKRTQGDLLLVLTYMKFFVSLRNKWDLGLLTLINKEISESFQGEGEPELAFINISNNTLGEYIEEMNIRS
Ratio (Deletedscore / WTscore) (bait RVS167): 0.4505

B6: YKR082W_1 (protein, UniProt P36161 2-1157, looked up)
Nucleoporin NUP133: SEKKVHLRLRKELSVPIAVVENESLAQLSYEEESQASLMDISMEQQQLRLHSHFDNSKVFTENNRYIVKTLQTDYSSGFSNDDELNGYIDMQIGYGLVNDHKKVYIWNIHSTQKDTPYITVPFRSDDNDEIAVAPRCILTFPATMDESPLALNPNDQDETGGLIIIKGSKAIYYEDINSINNLNFKLSEKFSHELELPINSSGGEKCDLMLNCEPAGIVLSTNMGRIFFITIRNSMGKPQLKLGKLLNKPFKLGIWSKIFNTNSSVVSLRNGPILGKGTRLVYITTNKGIFQTWQLSATNSHPTKLIDVNIYEAILESLQDLYPFAHGTLKIWDSHPLQDESSQLFLSSIYDSSCNETYYILSTIIFDSSSNSFTIFSTYRLNTFMESITDTKFKPKIFIPQMENANDTNEVTSILVMFPNAVVITQVNSKLDSSYSMRRKWEDIVSLRNDIDIIGSGYDSKSLYVLTKQMGVLQFFVKENEETNSKPEVGFVKSHVDQAVYFSKINANPIDFNLPPEISLDQESIEHDLKLTSEEIFHSNGKYIPPMLNTLGQHLSVRKEFFQNFLTFVAKNFNYKISPELKLDLIEKFEILNCCIKFNSIIRQSDVLNDIWEKTLSNYNLTQNEHLTTKTVVINSPDVFPVIFKQFLNHVVFVLFPSQNQNFKLNVTNLINLCFYDGILEEGEKTIRYELLELDPMEVDTSKLPWFINFDYLNCINQCFFDFTFACEEEGSLDSYKEGLLKIVKILYYQFNQFKIWINTQPVKSVNANDNFININNLYDDNHLDWNHVLCKVNLKEQCIQIAEFYKDLSGLVQTLQTLDQNDSTTVSLYETFFNEFPKEFSFTLFEYLIKHKKLNDLIFRFPQQHDVLIQFFQESAPKYGHVAWIQQILDGSYADAMNTLKNITVDDSKKGESLSECELHLNVAKLSSLLVEKDNLDINTLRKIQYNLDTIDAEKNISNKLKKGEVQICKRFKNGSIREVFNILVEELKSTTVVNLSDLVELYSMLDDEESLFIPLRLLSVDGNLLNFEVKKFLNALVWRRIVLLNASNEGDKLLQHIVKRVFDEELPKNNDFPLPSVDLLCDKSLLTPEYISETYGRFPIDQNAIREEIYEEISQVETLNSDNSLEIKLHSTIGSVAKEKNYTINYETNTVEY
Ratio (Deletedscore / WTscore) (bait RVS167): 0.6329

B7: YML035C_1 (protein, UniProt P15274 1-810, looked up)
AMP deaminase: MDNQATQRLNDLSLEPAPSHDEQDGSGLVIDIDQRKIGDEQAGVVVDDETPPLEQQDSHESLAADSRNANFSYHENQQLLENGTKQLALDEHDSHSAILEQPSHSTNCSSSNIAAMNKGHDSADHASQNSGGKPRTLSASAQHILPETLKSFAGAPVVNKQVRTSASYKMGMLADDASQQFLDDPSSELIDLYSKVAECRNLRAKYQTISVQNDDQNPKNKPGWVVYPPPPKPSYNSDTKTVVPVTNKPDAEVFDFTKCEIPGEDPDWEFTLNDDDSYVVHRSGKTDELIAQIPTLRDYYLDLEKMISISSDGPAKSFAYRRLQYLEARWNLYYLLNEYQETSVSKRNPHRDFYNVRKVDTHVHHSACMNQKHLLRFIKHKLRHSKDEKVIFRDGKLLTLDEVFRSLHLTGYDLSIDTLDMHAHKDTFHRFDKFNLKYNPIGESRLREIFLKTNNYIKGTYLADITKQVIFDLENSKYQNCEYRISVYGRSLDEWDKLASWVIDNKVISHNVRWLVQIPRLYDIYKKTGIVQSFQDICKNLFQPLFEVTKNPQSHPKLHVFLQRVIGFDSVDDESKVDRRFHRKYPKPSLWEAPQNPPYSYYLYYLYSNVASLNQWRAKRGFNTLVLRPHCGEAGDPEHLVSAYLLAHGISHGILLRKVPFVQYLYYLDQVGIAMSPLSNNALFLTYDKNPFPRYFKRGLNVSLSTDDPLQFSYTREPLIEEYSVAAQIYKLSNVDMCELARNSVLQSGWEAQIKKHWIGKDFDKSGVEGNDVVRTNVPDIRINYRYDTLSTELELVNHFANFKRTIEEK
Ratio (Deletedscore / WTscore) (bait): 0.7244
